Results on one molecule are retold here after article PMC3050594 (Nature structural & molecular biology, 2010).

In general, stoichiometry N refers to the number of molecules, sites or subunits per partner or assembly.

The target in this assay is RSV F0 Fd glycoprotein (Human respiratory syncytial virus; …, UniProt P03420, stabilised, glycosylated). Briefly: SEC. Background: SEC sorts molecules by how far they enter the pores of the column.

B1: palivizumab Fab (Fab, V domains shown)
VH: QVTLRESGPALVKPTQTLTLTCTFSGFSLSTSGMSVGWIRQPPGKALEWLADIWWDDKKDYNPSLKSRLTISKDTSKNQVVLKVTNMDPADTATYYCARSMITNWYFDVWGAGTTVTVSS
VL: DIQMTQSPSTLSASVGDRVTITCKCQLSVGYMHWYQQKPGKAPKLLIYDTSKLASGVPSRFSGSGSGTEFTLTISSLQPDDFATYYCFQGSGYPFTFGGGTKLEIK
For the molecule B1, the “stoichiometry N” value came out at 2.97 Fabs per trimer.
